Patent US20060270832A1

Molecular target: human noradrenaline transporter (hNET) (human) (UniProt P23975)
Test: cell-based or functional assay

human noradrenaline transporter (hNET) (human), sequence (P23975 whole entry): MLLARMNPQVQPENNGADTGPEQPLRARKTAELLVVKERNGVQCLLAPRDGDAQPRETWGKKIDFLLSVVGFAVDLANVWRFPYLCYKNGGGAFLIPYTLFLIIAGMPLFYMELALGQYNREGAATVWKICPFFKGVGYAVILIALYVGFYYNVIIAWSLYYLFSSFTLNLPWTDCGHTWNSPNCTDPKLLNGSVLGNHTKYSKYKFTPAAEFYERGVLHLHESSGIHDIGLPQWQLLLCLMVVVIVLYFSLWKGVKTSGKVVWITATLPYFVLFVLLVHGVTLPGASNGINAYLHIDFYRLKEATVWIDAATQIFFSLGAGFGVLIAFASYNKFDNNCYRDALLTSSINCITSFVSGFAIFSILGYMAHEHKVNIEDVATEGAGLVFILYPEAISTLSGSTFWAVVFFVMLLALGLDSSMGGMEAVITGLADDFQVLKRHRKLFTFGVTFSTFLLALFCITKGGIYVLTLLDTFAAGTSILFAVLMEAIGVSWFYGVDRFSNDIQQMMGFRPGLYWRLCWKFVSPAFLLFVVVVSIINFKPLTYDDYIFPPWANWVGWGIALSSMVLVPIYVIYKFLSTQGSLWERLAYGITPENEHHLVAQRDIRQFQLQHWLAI

χ-MrIA (peptide) showed an Av IC50, inhibition of NA uptake via hNET (log M (unit not given)) of -6.3.
